Data from paper PMC11180146 (2024).

Experiments:
[1] = target: T1, RNAseB, glycosylated (HM N-glycan at N34, mainly Man5 and Man6) (beef (bovine), as said of the protein …, UniProt P61823 27-150, HM N-glycan (mainly Man5 and Man6) at N34); assay: SPR
T1 chain: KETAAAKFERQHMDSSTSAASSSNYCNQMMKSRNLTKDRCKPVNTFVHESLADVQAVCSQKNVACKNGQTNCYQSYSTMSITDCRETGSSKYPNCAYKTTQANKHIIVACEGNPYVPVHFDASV

[2] = target: RNAseB, glycosylated (HM N-glycan at N34, mainly Man5 and Man6) (beef (bovine), as said of the protein in general) (UniProt P61823); assay: SPR; glycosylated RNAseB (Man5/6) amine-coupled to a CM5 chip on flow cell 2 (150 RU), deglycosylated RNAseB on control flow cell 1; enzyme as analyte, 120 s injection, 600 s dissociation; HBS-EP running buffer; Biacore X100

B1: BT1285_(D161A-E163A), catalytically inactive variant of the GH18 endo-β-N-acetylglucosaminidase BT1285 (enzyme)
chain: MPVNQSDNNQSEVVTRSATGIKNIVYIEVNDINPLNAGSYIMDDAPFFDYVILFAANIRGVGSDATLYNNPNVQYILDHKDTLIKPLQDKGIKVLLGLLGDHTGLGFANMNSAQTEQFATAVANAVSQYGLDGVDFADAWAEYGRNGYPSGSTGSFSNLITALHNKMPGKTITVFNYGYTSELTGVNSYIDYGIYAFFNSPSWSTGFGMPNSKFAPYTINLNSAPSAASAQLYSGQVASKGYGAIGYYDLRANNIVSVLNGVAKGAFKSTCTYDGNSYPKNY
- koff [1]: 0.000419 s⁻¹
- Kd [2]: 3.5 nM
